1 substance from article doi:10.1101/2024.05.23.595586 can be followed below.

The target in this assay is TREM2 (a.a. 19-134), biotinylated, WT (human) (UniProt Q9NZC2). The experiment in a line: BLI.
Chain of TREM2 (a.a. 19-134), biotinylated, WT (human) (Q9NZC2 19-134): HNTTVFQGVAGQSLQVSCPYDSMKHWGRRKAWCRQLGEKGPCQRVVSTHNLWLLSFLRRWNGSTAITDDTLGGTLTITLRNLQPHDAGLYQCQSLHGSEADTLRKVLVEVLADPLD

In the case of “oligomeric amyloid beta 42 (oAβ42) WT (peptide)”, the Kd is 42.5 nM.
